Results on one molecule are retold here after patent US20030129703A1 (Regeneron, published 2003).

Assay [1] addresses T1, Fc-tagged human noggin (human, UniProt Q13253 28-232).
T1 construct: Secreted protein; also called hNG-Fc; not shown: Fc domain of human IgG1 (BspEI-NotI human IgG1 fragment), hinge and Fc
T1 sequence: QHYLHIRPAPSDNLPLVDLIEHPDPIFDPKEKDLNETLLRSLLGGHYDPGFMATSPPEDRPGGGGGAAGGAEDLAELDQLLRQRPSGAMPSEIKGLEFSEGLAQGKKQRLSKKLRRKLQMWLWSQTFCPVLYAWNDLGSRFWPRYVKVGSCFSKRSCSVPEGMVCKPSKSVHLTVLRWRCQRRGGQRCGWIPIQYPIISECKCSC
Put plainly: ELISA on plate-coated hBMP4. On the procedure: Unbound hBMP4 was removed by washing four times with PBS, and the plates were blocked with 1% BSA in PBS. […] After a 1 hour incubation unbound anti-Fc●AP was removed by washing four times with TBS+0.1% Tween and then Alkaline Phosphatase substrate (para-nitrophenyl phosphate; Sigma) was added. Alkaline Phosphatase converts this substrate to a product whose production can be monitored by measuring Absorbance at 405 nm.
To determine if this hNG mutein was active, its ability to bind to hBMP4 was compared with that of hNG-Fc, which binds human Bone Morphogenetic Protein 4 (hBMP4) with affinity essentially identical to that of untagged hNG. An ELISA format assay where hBMP4 is captured on the surface of an ELISA plate was used to compare the two proteins.

Assay [2] deals with T2, hNGΔ133-179Fc (human, UniProt Q13253 28-232).
T2 construct: not shown: peptide bridge to the Fc; Fc domain of human IgG1
T2 sequence: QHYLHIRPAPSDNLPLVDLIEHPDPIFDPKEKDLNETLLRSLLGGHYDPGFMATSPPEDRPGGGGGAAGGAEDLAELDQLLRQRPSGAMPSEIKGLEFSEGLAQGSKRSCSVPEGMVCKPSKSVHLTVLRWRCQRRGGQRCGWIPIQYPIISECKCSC
Put plainly: binding to BMP4; assay not detailed.

B1: human Bone Morphogenetic Protein 4 (ligand, UniProt P12644 293-408, looked up)
chain: SPKHHSQRARKKNKNCRRHSLYVDFSDVGWNDWIVAPPGYQAFYCHGDCPFPLADHLNSTNHAIVQTLVNSVNSSIPKACCVPTELSAISMLYLDEYDKVVLKNYQEMVVEGCGCR
notes: also called hBMP4; BMP4
On to B1, for which the values for the binding result in assay [1] and in assay [2] were “binds” and “no binding”, respectively.
